Literature values, collected in article PMC4040926.

Target: SNARE complex (Rattus norvegicus) (UniProt P32851)
Test: ITC

UniProt P32851, sequence (P32851 whole entry, chain 1 of 3): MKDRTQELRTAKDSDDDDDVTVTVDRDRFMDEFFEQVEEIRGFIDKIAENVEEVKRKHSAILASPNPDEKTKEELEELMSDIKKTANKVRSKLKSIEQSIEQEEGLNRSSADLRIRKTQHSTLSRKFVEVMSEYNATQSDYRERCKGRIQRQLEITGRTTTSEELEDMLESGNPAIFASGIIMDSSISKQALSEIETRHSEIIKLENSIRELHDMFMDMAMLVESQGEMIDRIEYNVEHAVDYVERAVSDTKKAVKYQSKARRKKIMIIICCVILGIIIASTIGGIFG
UniProt P32851, sequence (B2RAU4 whole entry, chain 2 of 3, further chain): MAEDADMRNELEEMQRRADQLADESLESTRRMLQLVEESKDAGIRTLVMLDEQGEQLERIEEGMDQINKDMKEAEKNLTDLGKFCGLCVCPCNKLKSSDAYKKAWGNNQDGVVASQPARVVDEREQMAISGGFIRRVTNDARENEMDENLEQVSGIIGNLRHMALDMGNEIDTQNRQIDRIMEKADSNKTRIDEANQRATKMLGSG
UniProt P32851, sequence (P63044 2-116, chain 3 of 3, further chain): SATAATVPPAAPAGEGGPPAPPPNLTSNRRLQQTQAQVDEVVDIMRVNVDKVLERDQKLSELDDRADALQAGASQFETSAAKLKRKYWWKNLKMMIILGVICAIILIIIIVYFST

- Kd: 25.3 nM
Substance: Complexin-I 26-83 (from UniProt P63041)
